To fix the notation:
B1: glmS ribozyme (parent)
chain: AUAAAAGCGCCAGAACUACAGAAAUGUAGUUGACGAGGAGGAGGUUUAUCGAAUUUUCGGCGGAUGCCUCCAAA

± gives the standard error. For some assays here: This sample holds only a part of the variants without activity.

Conditions in all cases: with glucosamine-6-phosphate
Data set [1] covers variants of B1. Description: kcat; higher = faster cleavage; RNA array. Put shortly: (§1)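 Using a hybridised Cy3 probe at 37 °C, barcoded ribozyme variants transcribed in situ by E. coli RNA polymerase on sequenced MiSeq chips were monitored across tiles imaged over ~14 h. The flow contained glucosamine-6-phosphate from 40 μM to 10 mM in HEPES/KCl/Mg(OAc)2 buffer. Signals were normalised to baseline and to non-cleaving reference variants before per-tile medians were fit to one- or two-exponential decays to yield kobs. Weighted Michaelis–Menten fits across concentrations gave kcat and KM.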

The variants in data set [2] derive from B1. Nature of the data set: KM; higher = weaker cofactor use; RNA array. Put shortly: as §1
Variants of B1 are the subject of data set [3]. Nature of the data set: self-cleavage kobs at 40 uM GlcN6P; higher = faster cleavage; RNA array. Put shortly:
as §1

Data set [4] covers variants of B1. Nature of the data set: self-cleavage kobs at 160 uM GlcN6P; higher = faster cleavage; RNA array. A digest of the protocol:
as §1

The variants in data set [5] derive from B1. Description: self-cleavage kobs at 640 uM GlcN6P; higher = faster cleavage; RNA array. A digest of the protocol:
as §1

The variants in data set [6] derive from B1. Description: self-cleavage kobs at 2500 uM GlcN6P; higher = faster cleavage; RNA array. A digest of the protocol:
as §1

The variants in data set [7] derive from B1. Nature of the data set: self-cleavage kobs at 10000 uM GlcN6P; higher = faster cleavage; RNA array. Put shortly: as §1

Broadly, the kcat is the number of substrate molecules converted per active site and unit of time at saturation. Usually KM stands for the substrate concentration at which the rate is half of its maximum.

On to U49G, for which the kcat with glucosamine-6-phosphate [1] amounted to 0.00147 ± 0.00022 s⁻¹. Also, the KM with glucosamine-6-phosphate [2] is 2840 ± 550 µM. In addition, the “self-cleavage kobs at 40 uM GlcN6P” value with glucosamine-6-phosphate [3] was determined as 2.57e-05 ± 1.3e-06 s⁻¹. For the same variant, the “self-cleavage kobs at 160 uM GlcN6P” value in the data set with glucosamine-6-phosphate [4] turned out to be 7.59e-05 ± 2.5e-06 s⁻¹. Besides, the “self-cleavage kobs at 640 uM GlcN6P” value in the data set with glucosamine-6-phosphate [5] stood at 0.000258 ± 7.3e-06 s⁻¹. Moreover, the “self-cleavage kobs at 2500 uM GlcN6P” value with glucosamine-6-phosphate [6] was 0.000807 ± 4.3e-05 s⁻¹. The “self-cleavage kobs at 10000 uM GlcN6P” value in the data set with glucosamine-6-phosphate [7] turned out to be 0.00113 ± 4.5e-05 s⁻¹.

As for A14C C67U, the kcat with glucosamine-6-phosphate [1] amounted to 0.00159 ± 0.00047 s⁻¹. The KM in the data set with glucosamine-6-phosphate [2] was 1720 ± 820 µM. Besides, the “self-cleavage kobs at 40 uM GlcN6P” value with glucosamine-6-phosphate [3] turned out to be 5.24e-05 ± 9e-06 s⁻¹. Also, in the data set with glucosamine-6-phosphate [4], the “self-cleavage kobs at 160 uM GlcN6P” value worked out at 0.000119 ± 1.7e-05 s⁻¹. In addition, the “self-cleavage kobs at 640 uM GlcN6P” value with glucosamine-6-phosphate [5] came out at 0.000511 ± 6e-05 s⁻¹. In addition, in the data set with glucosamine-6-phosphate [6], the “self-cleavage kobs at 2500 uM GlcN6P” value came out at 0.000783 ± 8.1e-05 s⁻¹. For the same variant, in the data set with glucosamine-6-phosphate [7], the “self-cleavage kobs at 10000 uM GlcN6P” value stood at 0.00184 ± 0.00023 s⁻¹.

C58A C61A C70U: the kcat with glucosamine-6-phosphate [1] turned out to be 1.3e-05 ± 1.9e-06 s⁻¹.

For the variant G40U G41U, the kcat with glucosamine-6-phosphate [1] is 8.36e-05 ± 7.4e-06 s⁻¹. The KM with glucosamine-6-phosphate [2] was 901 ± 330 µM. In addition, the “self-cleavage kobs at 40 uM GlcN6P” value with glucosamine-6-phosphate [3] was below 1e-05 s⁻¹. For the same variant, the “self-cleavage kobs at 640 uM GlcN6P” value with glucosamine-6-phosphate [5] worked out at 2.92e-05 ± 8e-06 s⁻¹. Moreover, the “self-cleavage kobs at 2500 uM GlcN6P” value with glucosamine-6-phosphate [6] came out at 7.1e-05 ± 8.5e-06 s⁻¹. Also, the “self-cleavage kobs at 10000 uM GlcN6P” value with glucosamine-6-phosphate [7] came out at 7.34e-05 ± 7e-06 s⁻¹.

For the variant U31G A42U, in the data set with glucosamine-6-phosphate [1], the kcat is 5.2e-05 ± 1.3e-05 s⁻¹. Further, in the data set with glucosamine-6-phosphate [6], the “self-cleavage kobs at 2500 uM GlcN6P” value is 2.29e-05 ± 1.1e-05 s⁻¹. The “self-cleavage kobs at 10000 uM GlcN6P” value with glucosamine-6-phosphate [7] came out at 4.27e-05 ± 1.1e-05 s⁻¹.

On to G35U G43U, for which the kcat with glucosamine-6-phosphate [1] was below 1e-05 s⁻¹. Further, the “self-cleavage kobs at 640 uM GlcN6P” value in the data set with glucosamine-6-phosphate [5] is below 1e-05 s⁻¹. Further, in the data set with glucosamine-6-phosphate [6], the “self-cleavage kobs at 2500 uM GlcN6P” value was below 1e-05 s⁻¹.

On to A14U C70A, for which, in the data set with glucosamine-6-phosphate [1], the kcat was found to be 0.000118 ± 4.4e-06 s⁻¹. Moreover, the KM with glucosamine-6-phosphate [2] was 568 ± 71 µM. Moreover, in the data set with glucosamine-6-phosphate [4], the “self-cleavage kobs at 160 uM GlcN6P” value amounted to 2.57e-05 ± 8.7e-06 s⁻¹. In addition, in the data set with glucosamine-6-phosphate [5], the “self-cleavage kobs at 640 uM GlcN6P” value is 6.15e-05 ± 8e-06 s⁻¹. In the data set with glucosamine-6-phosphate [6], the “self-cleavage kobs at 2500 uM GlcN6P” value is 9.59e-05 ± 1e-05 s⁻¹. Further, the “self-cleavage kobs at 10000 uM GlcN6P” value with glucosamine-6-phosphate [7] was found to be 0.000112 ± 1.1e-05 s⁻¹.

In the case of C11U U47G, the kcat in the data set with glucosamine-6-phosphate [1] was determined as 0.000176 ± 3.3e-05 s⁻¹. Further, the “self-cleavage kobs at 640 uM GlcN6P” value with glucosamine-6-phosphate [5] came to 7.97e-05 ± 1.3e-05 s⁻¹. Further, the “self-cleavage kobs at 2500 uM GlcN6P” value with glucosamine-6-phosphate [6] came out at 0.000191 ± 3.3e-05 s⁻¹. In addition, in the data set with glucosamine-6-phosphate [7], the “self-cleavage kobs at 10000 uM GlcN6P” value is 0.000149 ± 2.2e-05 s⁻¹.

On to U49G A64G, for which the kcat with glucosamine-6-phosphate [1] amounted to 0.00241 ± 0.00088 s⁻¹. In addition, the “self-cleavage kobs at 40 uM GlcN6P” value with glucosamine-6-phosphate [3] worked out at 6.16e-05 ± 1e-05 s⁻¹. Besides, the “self-cleavage kobs at 160 uM GlcN6P” value in the data set with glucosamine-6-phosphate [4] was found to be 0.00015 ± 4.1e-05 s⁻¹. Moreover, the “self-cleavage kobs at 640 uM GlcN6P” value with glucosamine-6-phosphate [5] was 0.000414 ± 6.7e-05 s⁻¹. The “self-cleavage kobs at 2500 uM GlcN6P” value in the data set with glucosamine-6-phosphate [6] was 0.000922 ± 0.00016 s⁻¹. In addition, the “self-cleavage kobs at 10000 uM GlcN6P” value in the data set with glucosamine-6-phosphate [7] was found to be 0.00232 ± 0.0003 s⁻¹.

For A14G U31G, the kcat in the data set with glucosamine-6-phosphate [1] amounted to 0.00752 ± 0.0003 s⁻¹. Also, the KM with glucosamine-6-phosphate [2] turned out to be 2120 ± 140 µM. Further, in the data set with glucosamine-6-phosphate [4], the “self-cleavage kobs at 160 uM GlcN6P” value was determined as 0.000539 ± 9.8e-05 s⁻¹. For the same variant, the “self-cleavage kobs at 640 uM GlcN6P” value with glucosamine-6-phosphate [5] came to 0.00175 ± 0.00031 s⁻¹. The “self-cleavage kobs at 2500 uM GlcN6P” value with glucosamine-6-phosphate [6] turned out to be 0.0039 ± 0.00067 s⁻¹. The “self-cleavage kobs at 10000 uM GlcN6P” value in the data set with glucosamine-6-phosphate [7] was found to be 0.00635 ± 0.00094 s⁻¹.

Consider A33C U55A, for which the kcat with glucosamine-6-phosphate [1] is 0.000974 ± 0.00015 s⁻¹. Also, in the data set with glucosamine-6-phosphate [2], the KM worked out at 3160 ± 940 µM. The “self-cleavage kobs at 160 uM GlcN6P” value with glucosamine-6-phosphate [4] turned out to be 3.03e-05 ± 1.4e-05 s⁻¹. Also, the “self-cleavage kobs at 640 uM GlcN6P” value in the data set with glucosamine-6-phosphate [5] is 0.000183 ± 3.5e-05 s⁻¹. In the data set with glucosamine-6-phosphate [6], the “self-cleavage kobs at 2500 uM GlcN6P” value amounted to 0.000519 ± 9.2e-05 s⁻¹. Further, the “self-cleavage kobs at 10000 uM GlcN6P” value with glucosamine-6-phosphate [7] was 0.000717 ± 7.8e-05 s⁻¹.

In the case of A14G A15G C50U C68U, the kcat in the data set with glucosamine-6-phosphate [1] is 5.28e-05 ± 7.8e-06 s⁻¹. In addition, the “self-cleavage kobs at 640 uM GlcN6P” value with glucosamine-6-phosphate [5] came to 7.36e-05 ± 2e-05 s⁻¹. Besides, the “self-cleavage kobs at 2500 uM GlcN6P” value with glucosamine-6-phosphate [6] was determined as 4.92e-05 ± 1.8e-05 s⁻¹. The “self-cleavage kobs at 10000 uM GlcN6P” value with glucosamine-6-phosphate [7] was 4.76e-05 ± 1.2e-05 s⁻¹.

Regarding A36U U49G, the kcat with glucosamine-6-phosphate [1] is 2.84e-05 ± 1.2e-05 s⁻¹. Besides, the “self-cleavage kobs at 40 uM GlcN6P” value in the data set with glucosamine-6-phosphate [3] is below 1e-05 s⁻¹. Moreover, the “self-cleavage kobs at 2500 uM GlcN6P” value with glucosamine-6-phosphate [6] worked out at 3.43e-05 ± 1.7e-05 s⁻¹.

G13U U54G C70G: the kcat with glucosamine-6-phosphate [1] was determined as 4.42e-05 ± 4.5e-06 s⁻¹. For the same variant, the “self-cleavage kobs at 640 uM GlcN6P” value in the data set with glucosamine-6-phosphate [5] was determined as 5.17e-05 ± 2.4e-05 s⁻¹. Further, the “self-cleavage kobs at 2500 uM GlcN6P” value with glucosamine-6-phosphate [6] came to 4.17e-05 ± 1.2e-05 s⁻¹. The “self-cleavage kobs at 10000 uM GlcN6P” value with glucosamine-6-phosphate [7] came to 4.21e-05 ± 1.5e-05 s⁻¹.

Regarding U30C A53C, the kcat with glucosamine-6-phosphate [1] stood at 3.34e-05 ± 6.8e-06 s⁻¹. In addition, in the data set with glucosamine-6-phosphate [4], the “self-cleavage kobs at 160 uM GlcN6P” value is below 1e-05 s⁻¹. The “self-cleavage kobs at 2500 uM GlcN6P” value with glucosamine-6-phosphate [6] was 3.87e-05 ± 9.7e-06 s⁻¹. In the data set with glucosamine-6-phosphate [7], the “self-cleavage kobs at 10000 uM GlcN6P” value worked out at 2.78e-05 ± 9e-06 s⁻¹.

Consider C16U G32C, for which the kcat in the data set with glucosamine-6-phosphate [1] came to 0.000168 ± 3e-05 s⁻¹. In addition, the KM with glucosamine-6-phosphate [2] was determined as 3960 ± 1900 µM. The “self-cleavage kobs at 2500 uM GlcN6P” value with glucosamine-6-phosphate [6] was 7.33e-05 ± 1.4e-05 s⁻¹. Besides, in the data set with glucosamine-6-phosphate [7], the “self-cleavage kobs at 10000 uM GlcN6P” value turned out to be 0.000119 ± 1.2e-05 s⁻¹.

For the origin of these results see the supplement of paper PMC7125110.
